The source of these data is the Immune Epitope Database (IEDB).

Targets include HLA-A*02:03; HLA-A*02:06; HLA-A*68:02; HLA-A*02:02; HLA-A*02:01.
Assay in all cases: IEDB peptide-MHC binding, purified MHC/competitive/radioactivity; ≥ and ≤ were set here for values at or beyond the usual limits of such assays
The mark [1] stands for this setting: source organism: Vaccinia virus WR.
The mark [2] stands for this setting: source organism: Hepacivirus hominis.
The mark [3] stands for this setting: source organism: Influenza A virus.
Setting [4] is: source organism: Mammarenavirus lassaense.

Usually IC50 stands for the concentration needed to halve the response being measured. In the case of MLTNAISSRV, the IC50 was 0.11 nM with HLA-A*02:03 (setting [1]); 224 nM in the test with HLA-A*02:06 (setting [1]); 101 nM with HLA-A*68:02 (setting [1]); 53 nM with HLA-A*02:02 (setting [1]); 208 nM in the test with HLA-A*02:01 (setting [1]).

On to MLVCGDDLVV, for which the IC50 in the test with HLA-A*02:03 (setting [2]) was 102 nM; with HLA-A*02:06 (setting [2]), 157 nM; with HLA-A*68:02 (setting [2]), 3060 nM; with HLA-A*02:02 (setting [2]) it was 45 nM; with HLA-A*02:01 (setting [2]), 97 nM.

Take MLWCKDGHV: the IC50 with HLA-A*02:03 (source organism: SARS-CoV1) is 11 nM; in the test with HLA-A*02:06 (source organism: SARS-CoV1), 362 nM; in the test with HLA-A*68:02 (source organism: SARS-CoV1), 74 nM; with HLA-A*02:02 (source organism: SARS-CoV1) it was 10 nM; with HLA-A*02:01 (source organism: SARS-CoV1), 30 nM.

As to MMMNWSPTTA, the IC50 in the test with HLA-A*02:03 (setting [2]) was determined as 6.1 nM; in the test with HLA-A*02:06 (setting [2]) it was 849 nM; with HLA-A*68:02 (setting [2]), 1140 nM; in the test with HLA-A*02:02 (setting [2]), 14 nM; in the test with HLA-A*02:01 (setting [2]), 34 nM.

Consider MMNERDVSV, for which the IC50 stood at 0.27 nM with HLA-A*02:03 (setting [1]); 64 nM in the test with HLA-A*02:06 (setting [1]); 566 nM with HLA-A*68:02 (setting [1]); 0.44 nM with HLA-A*02:02 (setting [1]); 1.1 nM with HLA-A*02:01 (setting [1]).

For MMNITRLEVI, the IC50 in the test with HLA-A*02:03 (setting [1]) is 26 nM; in the test with HLA-A*02:06 (setting [1]), 134 nM; with HLA-A*68:02 (setting [1]), 428 nM; with HLA-A*02:02 (setting [1]) it was 85 nM; in the test with HLA-A*02:01 (setting [1]) it was 144 nM.

Regarding MMVILPDKI, the IC50 is 16 nM with HLA-A*02:03 (setting [1]); 909 nM with HLA-A*02:06 (setting [1]); 1630 nM with HLA-A*68:02 (setting [1]); 69 nM with HLA-A*02:02 (setting [1]); 161 nM in the test with HLA-A*02:01 (setting [1]).

On to MQALQLLLEV, for which the IC50 with HLA-A*02:03 (setting [3]) was determined as 13 nM; with HLA-A*02:06 (setting [3]), 48 nM; with HLA-A*68:02 (setting [3]) it was 615 nM; with HLA-A*02:02 (setting [3]), 147 nM; in the test with HLA-A*02:01 (setting [3]), 67 nM.

Consider MQIAILVTTV, for which the IC50 with HLA-A*02:03 (setting [3]) was 6 nM; with HLA-A*02:06 (setting [3]), 61 nM; with HLA-A*68:02 (setting [3]), 129 nM; in the test with HLA-A*02:02 (setting [3]), 40 nM; with HLA-A*02:01 (setting [3]) it was 79 nM.

On to MQIRGFVYFV, for which the IC50 in the test with HLA-A*02:03 (setting [3]) worked out at 3.6 nM; with HLA-A*02:06 (setting [3]), 10 nM; in the test with HLA-A*68:02 (setting [3]) it was 25 nM; with HLA-A*02:02 (setting [3]) it was 19 nM; in the test with HLA-A*02:01 (setting [3]) it was 15 nM.

Take MQKFTILEYL: the IC50 is 279 nM with HLA-A*02:03 (setting [1]); 909 nM in the test with HLA-A*02:06 (setting [1]); 3730 nM in the test with HLA-A*68:02 (setting [1]); 164 nM in the test with HLA-A*02:02 (setting [1]); 3730 nM with HLA-A*02:01 (setting [1]).

Turning to MQVFFGYFA, the half-inhibitory concentration (IC50) in the test with HLA-A*02:03 (source organism: SARS-CoV1) stood at 193 nM; with HLA-A*02:06 (source organism: SARS-CoV1), 1 nM; with HLA-A*68:02 (source organism: SARS-CoV1) it was 12 nM; with HLA-A*02:02 (source organism: SARS-CoV1), 10 nM; with HLA-A*02:01 (source organism: SARS-CoV1), 10 nM.

Regarding MVDVSMMSM, the IC50 with HLA-A*02:03 (setting [1]) was found to be 1160 nM; with HLA-A*02:06 (setting [1]) it was 101 nM; in the test with HLA-A*68:02 (setting [1]) it was 519 nM; with HLA-A*02:02 (setting [1]), 559 nM; with HLA-A*02:01 (setting [1]), 200 nM.

For the sequence MVLMTHFFSV, the concentration for half-maximal inhibition (IC50) in the test with HLA-A*02:03 (setting [2]) turned out to be 174 nM; in the test with HLA-A*02:06 (setting [2]), 15 nM; in the test with HLA-A*68:02 (setting [2]) it was 13 nM; in the test with HLA-A*02:02 (setting [2]), 808 nM; in the test with HLA-A*02:01 (setting [2]) it was 146 nM.

MVMCGGSLYV: the IC50 in the test with HLA-A*02:03 (source organism: SARS-CoV1) stood at 10 nM; in the test with HLA-A*02:06 (source organism: SARS-CoV1) it was 13 nM; in the test with HLA-A*68:02 (source organism: SARS-CoV1) it was 6.7 nM; with HLA-A*02:02 (source organism: SARS-CoV1), 15 nM; with HLA-A*02:01 (source organism: SARS-CoV1), 14 nM.

MVTDKTAYI: the IC50 worked out at 2 nM with HLA-A*02:03 (setting [1]); 25 nM in the test with HLA-A*02:06 (setting [1]); 3.2 nM in the test with HLA-A*68:02 (setting [1]); 17 nM with HLA-A*02:02 (setting [1]); 227 nM with HLA-A*02:01 (setting [1]).

Turning to NASKFVYVSV, the IC50 stood at 8.6 nM with HLA-A*02:03 (setting [1]); 823 nM with HLA-A*02:06 (setting [1]); 101 nM in the test with HLA-A*68:02 (setting [1]); 4550 nM with HLA-A*02:02 (setting [1]); 1010 nM with HLA-A*02:01 (setting [1]).

On to NCLSLLLSV, for which the IC50 with HLA-A*02:03 (setting [4]) was determined as 437 nM; with HLA-A*02:06 (setting [4]), 630 nM; with HLA-A*68:02 (setting [4]), 1850 nM; with HLA-A*02:02 (setting [4]), 49 nM; with HLA-A*02:01 (setting [4]), 73 nM.

For NIFMTLVPV, the IC50 with HLA-A*02:03 (setting [1]) turned out to be 6.4 nM; with HLA-A*02:06 (setting [1]), 227 nM; with HLA-A*68:02 (setting [1]), 2.6 nM; with HLA-A*02:02 (setting [1]), 86 nM; with HLA-A*02:01 (setting [1]), 11 nM.

With NIGCAVNTPV, the IC50 was 30 nM in the test with HLA-A*02:03 (setting [1]); 176 nM with HLA-A*02:06 (setting [1]); 11 nM with HLA-A*68:02 (setting [1]); 126 nM with HLA-A*02:02 (setting [1]); 23 nM with HLA-A*02:01 (setting [1]).

As to NIISYIILFI, the IC50 stood at 133 nM in the test with HLA-A*02:03 (setting [1]); 72 nM with HLA-A*02:06 (setting [1]); 25 nM in the test with HLA-A*68:02 (setting [1]); 123 nM in the test with HLA-A*02:02 (setting [1]); 156 nM in the test with HLA-A*02:01 (setting [1]).

Turning to NILMDSIFV, the IC50 turned out to be 223 nM with HLA-A*02:03 (setting [1]); 170 nM in the test with HLA-A*02:06 (setting [1]); 147 nM in the test with HLA-A*68:02 (setting [1]); 252 nM in the test with HLA-A*02:02 (setting [1]); 179 nM with HLA-A*02:01 (setting [1]).

NIPELKHGLL: the IC50 with HLA-A*02:03 (setting [1]) is 2700 nM; with HLA-A*02:06 (setting [1]), 1230 nM; with HLA-A*68:02 (setting [1]) it was 100 nM; with HLA-A*02:02 (setting [1]), 2300 nM; with HLA-A*02:01 (setting [1]), 2560 nM.

NITRLEVIGL: the IC50 is 95 nM in the test with HLA-A*02:03 (setting [1]); 197 nM in the test with HLA-A*02:06 (setting [1]); 301 nM with HLA-A*68:02 (setting [1]); 907 nM in the test with HLA-A*02:02 (setting [1]); 424 nM with HLA-A*02:01 (setting [1]).
